Target: T1, GFP-tagged Lsm188p (Lsm8p with the N-terminal domain of Lsm1p) (S. cerevisiae, UniProt P47017 1-51; P47093 11-109)
T1 chain (looked up): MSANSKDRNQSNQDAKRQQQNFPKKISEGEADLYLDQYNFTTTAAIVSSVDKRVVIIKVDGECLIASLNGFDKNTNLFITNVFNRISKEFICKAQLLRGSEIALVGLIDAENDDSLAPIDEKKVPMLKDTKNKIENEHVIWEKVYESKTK
Experiment: co-IP

B1: Lsm7–Myc (genomically encoded Lsm7p with 13myc tag) (natural protein, S. cerevisiae, UniProt P53905 1-115, looked up)
chain: MHQQHSKSENKPQQQRKKFEGPKREAILDLAKYKDSKIRVKLMGGKLVIGVLKGYDQLMNLVLDDTVEYMSNPDDENNTELISKNARKLGLTVIRGTILVSLSSAEGSDVLYMQK
**Q.** B1 was tested. Which “reduction of co-precipitated Lsm7p against wild-type” value did it give?
**A.** > 50 % reduction
